Data taken from doi:10.1101/2025.10.13.682046 (bioRxiv, 2025).

B1: GST-CIP2A(1-330) (domain or fragment)
chain: not shown

Legend:
GST-CIP2A(1-330) = target: B1; test: pull-down
CIP2A(1-560)-V5 = CIP2A(1-560)-V5 (human, UniProt Q8TCG1 1-560); test: pull-down

binding result (GST-CIP2A(1-330)) | binding result (CIP2A(1-560)-V5) | Binder
binds |  | CIP2A(1-330), prey of the GST pull-down (domain or fragment) not shown
 | binds | B1
 | binds | CIP2A(331-560) (domain or fragment) not shown
